Two substances from paper PMC2958111 can be followed below.

This test addresses VEGF receptor 2 (UniProt P35968). Description: ELISA; VEGFR1 or VEGFR2 (200 ng/well) covalently attached with ethyl-carbodiimide to an amino-acid-coated 96-well plate; VEGF-A (200 ng/ml) applied alone or mixed with heparin, HS or porcine ocular fluid, 4°C overnight; washed with ice-cold PBS; bound VEGF-A measured with components of a human VEGF ELISA kit; values relative to controls (%).
Chain of UniProt P35968 (P35968 20-764): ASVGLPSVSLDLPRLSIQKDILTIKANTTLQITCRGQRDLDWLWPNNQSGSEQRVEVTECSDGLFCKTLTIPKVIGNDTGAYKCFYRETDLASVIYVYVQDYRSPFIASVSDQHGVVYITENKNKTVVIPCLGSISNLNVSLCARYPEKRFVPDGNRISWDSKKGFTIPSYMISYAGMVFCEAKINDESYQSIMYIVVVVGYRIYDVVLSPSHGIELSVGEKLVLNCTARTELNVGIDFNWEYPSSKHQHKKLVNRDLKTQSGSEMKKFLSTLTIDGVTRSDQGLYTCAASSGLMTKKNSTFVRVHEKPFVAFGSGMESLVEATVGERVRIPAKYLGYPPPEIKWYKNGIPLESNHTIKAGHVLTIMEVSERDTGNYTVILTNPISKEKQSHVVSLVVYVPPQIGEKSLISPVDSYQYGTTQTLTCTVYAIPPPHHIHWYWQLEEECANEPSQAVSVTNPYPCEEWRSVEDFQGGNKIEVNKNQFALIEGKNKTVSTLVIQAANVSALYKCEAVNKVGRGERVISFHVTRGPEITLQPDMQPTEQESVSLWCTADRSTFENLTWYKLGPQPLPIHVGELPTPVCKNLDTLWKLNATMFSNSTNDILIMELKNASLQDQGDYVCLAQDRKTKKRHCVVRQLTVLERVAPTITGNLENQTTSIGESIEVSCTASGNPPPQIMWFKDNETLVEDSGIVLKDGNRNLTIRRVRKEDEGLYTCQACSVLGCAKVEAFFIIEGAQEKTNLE

The substance “vascular endothelial growth factor-A, VEGF165 isoform (ligand)” registered a percent inhibition of binding by 1,000 µg/ml of HS from bovine kidney of 88.1%, a percent inhibition of binding by porcine ocular fluid (63.2 µg/ml of HS) of 85.7% and a percent reduction of binding with 1,000 µg/ml soluble heparin of 59.8%.
For the substance “vascular endothelial growth factor-A, VEGF121 isoform (ligand)”, the percent reduction of binding with 1,000 µg/ml soluble heparin is 9.4%.
